Key:
[1] = target: HA of B/Florida/04/2006 (Yamagata) (influenza B virus); assay: AlphaLISA competition vs CR8033
[2] = target: HA of B/Brisbane/60/2008 (Victoria) (influenza B virus); assay: cell-based or functional assay
[3] = target: HA of B/Harbin/7/94 (Yamagata) (influenza B virus); assay: cell-based or functional assay
[4] = target: HA of B/Florida/04/2006 (Yamagata) (influenza B virus); assay: cell-based or functional assay
[5] = target: HA of B/Malaysia/2506/04 (Victoria) (influenza B virus); assay: cell-based or functional assay
[6] = target: HA of H3N2 A/Brisbane/10/2007 (influenza A virus); assay: BLI steady state
[7] = target: HA of H7N3 A/NIBRG/60 (A/mallard/NL/12/00) (influenza A virus); assay: BLI steady state
[8] = target: HA of H3N2 A/Brisbane/10/2007 (influenza A virus); assay: cell-based or functional assay
[9] = target: HA of H1N1 A/New Caledonia/20/1999 (influenza A virus); assay: cell-based or functional assay
[10] = target: HA of H5N1 A/Vietnam/1194/04 (influenza A virus); assay: cell-based or functional assay
[11] = target: HA of H7N3 A/NIBRG/60 (A/mallard/NL/12/00) (influenza A virus); assay: cell-based or functional assay
[12] = target: HA of H1N1 A/Brisbane/59/07 (influenza A virus); assay: cell-based or functional assay
[13] = target: hemagglutinin (HA) of influenza B/Harbin/7/94 (Yamagata lineage) (influenza B virus B/Harbin/7/94); assay: cell-based or functional assay
[14] = target: hemagglutinin (HA) of influenza A/New Caledonia/20/99 (H1N1) (influenza A virus A/New Caledonia/20/99 (H1N1)); assay: cell-based or functional assay
[15] = target: hemagglutinin (HA) of influenza A/Vietnam/1194/04 (H5N1) (influenza A virus A/Vietnam/1194/04 (H5N1)); assay: cell-based or functional assay
[16] = target: hemagglutinin (HA) of influenza A/Brisbane/10/07 (H3N2) (influenza A virus A/Brisbane/10/07 (H3N2)); assay: cell-based or functional assay
[17] = target: hemagglutinin (HA) of influenza B/Brisbane/60/08 (Victoria lineage) (influenza B virus B/Brisbane/60/08); assay: cell-based or functional assay
[18] = target: hemagglutinin (HA) of influenza virus H7N7 A/PR8 H7N7-NY (influenza A virus); assay: cell-based or functional assay
[19] = target: hemagglutinin (HA) of influenza virus H1N1 A/Puerto Rico/8/34-MA (influenza A virus); assay: cell-based or functional assay
[20] = target: hemagglutinin (HA) of influenza virus H3N2 A/Brisbane/10/07 (influenza A virus); assay: cell-based or functional assay
[21] = target: hemagglutinin (HA) of influenza virus B/Malaysia/2506/04 (Victoria) (influenza B virus); assay: cell-based or functional assay
[22] = target: hemagglutinin (HA) of influenza virus H1N1 A/Christchurch/16/10 (influenza A virus); assay: cell-based or functional assay
[23] = target: hemagglutinin (HA) of influenza virus H7N9 A/Anhui/1/13 (influenza A virus); assay: cell-based or functional assay
[24] = target: hemagglutinin (HA) of influenza virus H6N1 A/Eurasian Wigeon/MPG1884/09 (influenza A virus); assay: cell-based or functional assay
[25] = target: hemagglutinin (HA) of influenza virus H3N2 A/Fukui/45/04 (influenza A virus); assay: cell-based or functional assay
[26] = target: hemagglutinin (HA) of influenza virus H1N1 A/WSN/33 (influenza A virus) (UniProt P03454); assay: cell-based or functional assay
[27] = target: hemagglutinin (HA) of influenza virus H3N2 A/Victoria/210/09 (influenza A virus); assay: cell-based or functional assay
[28] = target: hemagglutinin (HA) of influenza virus H11N9 A/Northern Pintail/MPC2085/07 (influenza A virus); assay: cell-based or functional assay
[29] = target: hemagglutinin (HA) of influenza virus H5N1 A/PR8 H5N1 HK97 (influenza A virus); assay: cell-based or functional assay
[30] = target: hemagglutinin (HA) of influenza virus H9N2 A/HK/466419/09 (influenza A virus); assay: cell-based or functional assay
[31] = target: hemagglutinin (HA) of influenza virus H2N2 A/Guiyang/1/57 (influenza A virus); assay: cell-based or functional assay
[32] = target: hemagglutinin (HA) of influenza virus H8N4 A/Eurasian Wigeon/MPH571/08 (influenza A virus); assay: cell-based or functional assay
[33] = target: hemagglutinin (HA) of influenza virus H1N1 A/California/07/09 (influenza A virus); assay: cell-based or functional assay
[34] = target: hemagglutinin (HA) of influenza virus H3N2 A/Johannesburg/33/94 (influenza A virus); assay: cell-based or functional assay
[35] = target: hemagglutinin (HA) of influenza virus H3N2 A/Wisconsin/67/05 (influenza A virus); assay: cell-based or functional assay
[36] = target: hemagglutinin (HA) of influenza virus B/Brisbane/60/08 (Victoria) (influenza B virus); assay: cell-based or functional assay
[37] = target: hemagglutinin (HA) of influenza virus H5N1 A/Vietnam/1194/04 (influenza A virus); assay: cell-based or functional assay
[38] = target: hemagglutinin (HA) of influenza virus B/Florida/04/06 (Yamagata) (influenza B virus); assay: cell-based or functional assay
[39] = target: hemagglutinin (HA) of influenza virus H7N3 A/NIBRG/60 (A/mallard/Netherlands/12/00) (influenza A virus); assay: cell-based or functional assay
[40] = target: hemagglutinin (HA) of influenza virus B/Harbin/7/94 (Yamagata) (influenza B virus); assay: cell-based or functional assay
[41] = target: hemagglutinin (HA) of influenza virus H3N2 A/Aichi/2/68 (influenza A virus) (UniProt P03437); assay: cell-based or functional assay
[42] = target: hemagglutinin (HA) of influenza virus H1N1 A/Mississippi/03/01 274H (influenza A virus); assay: cell-based or functional assay
[43] = target: hemagglutinin (HA) of influenza virus H3N2 A/Hiroshima/52/05 (influenza A virus); assay: cell-based or functional assay
[44] = target: hemagglutinin (HA) of influenza virus B/Massachusetts/02/12 (Yamagata) (influenza B virus); assay: cell-based or functional assay
[45] = target: hemagglutinin (HA) of influenza virus H3N2 A/HK/1/68-MA (influenza A virus); assay: cell-based or functional assay
[46] = target: hemagglutinin (HA) of influenza virus H14N5 A/Mallard/Astrakhan/263/1982 (influenza A virus); assay: cell-based or functional assay
[47] = target: hemagglutinin (HA) of influenza virus H1N1 A/Solomon Islands/3/2006 (IVR 145) (influenza A virus); assay: cell-based or functional assay
[48] = target: hemagglutinin (HA) of influenza virus H1N1 A/Brisbane/59/07 (influenza A virus); assay: cell-based or functional assay
[49] = target: hemagglutinin (HA) of influenza virus H3N2 A/Perth/16/09 (influenza A virus); assay: cell-based or functional assay
[50] = target: hemagglutinin (HA) of influenza virus H4 A/WF/HK/MPA892/06 (influenza A virus); assay: cell-based or functional assay
[51] = target: hemagglutinin (HA) of influenza virus H10N7 A/Chick/Germany/N/49 (influenza A virus); assay: cell-based or functional assay
[52] = target: hemagglutinin (HA) of influenza virus H7N9 A/Shanghai/2/13 (influenza A virus); assay: cell-based or functional assay
[53] = target: hemagglutinin (HA) of influenza virus H3N2 A/Panama/2007/99 (influenza A virus); assay: cell-based or functional assay
[54] = target: hemagglutinin (HA) of influenza virus B/Lee/40 (Old) (influenza B virus) (UniProt P03460); assay: cell-based or functional assay
[55] = target: hemagglutinin (HA) of influenza virus H1N1 A/New Caledonia/20/99 (influenza A virus); assay: cell-based or functional assay
[56] = target: HA of H1N1 A/Puerto Rico/8/34-MA (influenza A virus); assay: cell-based or functional assay
[57] = target: HA of H3N2 A/HK/1/68 (influenza A virus) (UniProt Q91MA7); assay: cell-based or functional assay
[58] = target: HA of H4 A/WF/HK/MPA892/06 (influenza A virus); assay: cell-based or functional assay
[59] = target: HA of H10N7 A/Chick/Germany/N/49 (influenza A virus); assay: cell-based or functional assay
[60] = target: HA of H5N1 A/PR8 H5N1 HK97 (influenza A virus); assay: cell-based or functional assay

B1: SD1085 (VHH)
VHH: EVQLVESGGGLVQAGDSLRLSCVISGLSLDTYAVGWFRQAPGKEREGITCISSGHGMTYYADSVKGRFTVSTDNAKNTVYLQMNGLQPEDTARYYCATESRYYCSDNWPAPQRYIYWGQGTQVTVSS
[1]
  pIC50: < 7
[2]
  VNA titer: 40.7 nM
[3]
  VNA titer: 631 nM
[4]
  VNA titer: 187 nM
[5]
  VNA titer: 66.3 nM

B2: SD1048 (VHH)
VHH: EVQLVESGGGVVQPGGSLRLSCVASGRTSSMYSIGWFRQAPGKEREFVAVIGWYSGRTFYTDSMKGRFTISRDNARNTVYLQMNSLKPEDTAVYYCAAANGPLRLSNQADYWGQGTQVTVSS
[6]
  Kd: 3 nM
[7]
  Kd: 3 nM
[2]
  VNA titer: > 1000 nM
[8]
  VNA titer: 19.5 nM
[9]
  VNA titer: > 1000 nM
[4]
  VNA titer: > 1000 nM
[10]
  VNA titer: > 1000 nM
[11]
  VNA titer: 20.6 nM
[12]
  VNA titer: > 1000 nM

## TIFGIRVNTMG (Fc fusion) [FM1W3]
[13]
  Average neutralization titers: 8 nM
[14]
  Average neutralization titers: 6 nM
[15]
  Average neutralization titers: 10 nM
[16]
  Average neutralization titers: 16 nM
[17]
  Average neutralization titers: 16 nM

B3: MD2501 (bispecific antibody)
chain: EVQLVESGGGLVQPGGSLRLSCAVSISIFDIYAMDWYRQAPGKQRDLVATSFRDGSTNYADSVKGRFTISRDNAKNTLYLQMNSLKPEDTAVYLCHVSLYRDPLGVAGGMGVYWGKGALVTVSSGGGGSGGGGSEVQLVESGGGLVQPGGSLRLSCAVSISIFDIYAMDWYRQAPGKQRDLVATSFRDGSTNYADSVKGRFTISRDNAKNTLYLQMNSLKPEDTAVYLCHVSLYRDPLGVAGGMGVYWGKGALVTVSSGGGGSGGGGSEVQLVESGGGLVQAGGSLKLSCAASGRTYAMGWFRQAPGKEREFVAHINALGTRTYYSDSVKGRFTISRDNAKNTEYLEMNNLKPEDTAVYYCTAQGQWRAAPVAVAAEYEFWGQGTQVTVSSGGGGSGGGGSEVQLVESGGGLVQPGGSLRLSCAATGFTLENKAIGWFRQTPGSEREGVLCISKSGSWTYYTDSMRGRFTISRDNAENTVYLQMDSLKPEDTAVYYCATTTAGGGLCWDGTTFSRLASSWGQGTQVTVSSGGGGSGGGGSEVQLVESGGGLVQPGGSLKLSCAASGFTFSTSWMYWLRQAPGKGLEWVSVINTDGGTYYADSVKDRFTISRDNAKDTLYLQMSSLKSEDTAVYYCAKDWGGPEPTRGQGTQVTVSS
[18]
  average neutralization titer: 14 nM
[19]
  average neutralization titer: 8.5 nM
[20]
  average neutralization titer: 9.6 nM
[21]
  average neutralization titer: 8.8 nM
[22]
  average neutralization titer: 1.3 nM
[23]
  average neutralization titer: 73.8 nM
[24]
  average neutralization titer: 16 nM
[25]
  average neutralization titer: 21.2 nM
[26]
  average neutralization titer: 2.9 nM
[27]
  average neutralization titer: 5.8 nM
[28]
  average neutralization titer: 16 nM
[29]
  average neutralization titer: 4.9 nM
[30]
  average neutralization titer: 16 nM
[31]
  average neutralization titer: 19.9 nM
[32]
  average neutralization titer: 16 nM
[33]
  average neutralization titer: 3 nM
[34]
  average neutralization titer: 11.6 nM
[35]
  average neutralization titer: 14.1 nM
[36]
  average neutralization titer: 5 nM
[37]
  average neutralization titer: 6.5 nM
[38]
  average neutralization titer: 8.3 nM
[39]
  average neutralization titer: 13.8 nM
[40]
  average neutralization titer: 4.3 nM
[41]
  average neutralization titer: 12.6 nM
[42]
  average neutralization titer: 4.9 nM
[43]
  average neutralization titer: 6.5 nM
[44]
  average neutralization titer: 4 nM
[45]
  average neutralization titer: 19 nM
[46]
  average neutralization titer: 15.6 nM
[47]
  average neutralization titer: 3.9 nM
[48]
  average neutralization titer: 3 nM
[49]
  average neutralization titer: 5.7 nM
[50]
  average neutralization titer: 3.9 nM
[51]
  average neutralization titer: 14.9 nM
[52]
  average neutralization titer: 36.5 nM
[53]
  average neutralization titer: 18.1 nM
[54]
  average neutralization titer: 14.6 nM
[55]
  average neutralization titer: 4.8 nM

B4: SD1073 (VHH)
VHH: EVQLVESGGGLVQAGGSLRLSCAASGSAFSIAAMGWYRQAPGKQRELVATITTGGSTNYADSVKGRFTISRDNSKNTAYLQMNSLKPEDTAVYYCTAKSVVAETFGDLYNYWGQGTQVTVSS
[56]
  VNA titer: 89.6 nM
[8]
  VNA titer: > 1000 nM
[57]
  VNA titer: > 1000 nM
[58]
  VNA titer: > 1000 nM
[59]
  VNA titer: 317 nM
[9]
  VNA titer: 98.9 nM
[10]
  VNA titer: 224 nM
[60]
  VNA titer: 179 nM
[11]
  VNA titer: 135 nM

Reference: patent publication US20190359693A1
